The conditions of assay [1]: may vary from cell to cell; related literature; cited from earlier work.
Assay [2] relates to human kidney renal tubule cell (Human Kidney 2, HK-2). Description: Anti-fibrotic efficacy in HK-2 cells (drug after TGFβ1), αSMA western blot. It is filed as cell-based. Here is the method:
(1) Human kidney renal tubule cells (HK-2) were seeded (2.8×10^5 cells/well) in a […] according to the experimental scheme of FIG. 7A and incubated in RPMI 1640 Medium (11875-093, Gibco) including 10% FBS for 24 hours in an incubator at 37° C. 5% CO2.
(2) Afterwards, the plates were washed several times with PBS, and each well of the plate was treated with TGFβ1 (5 ng/ml) and incubated for 24 hours.
(3) Subsequently, the plates were then treated with the composition of the present disclosure (rhHAPLN1 protein content of 0, 5, 10, 20, and 50 ng/ml) and pirfenidone 0.2 mg/mL (200 μg/mL), respectively, and incubated for 48 hours.
(4) Each sample was then washed several times with ice-cold PBS, treated with radioimmunoprecipitation assay (RIPA) lysis and extraction buffer (Thermo Scientific) including protease and phosphatase inhibitors, scraped with a scraper, and transferred to an E-tube.
(5) By centrifugation (12000 rpm, 20 minutes, 4° C.), only the supernatant was obtained, and BCA assay was performed to obtain quantitative protein values.
(6) After quantification using the obtained quantitative value, cooking was performed at 100° C. for 3 minutes and then stored in a −20° C. refrigerator. […]
(11) After washing three times with TBST for 10 minutes each, the samples were detected by Chemidoc.
In general terms: Immunoblotting shows a protein as a band on a membrane.

Assay [3] deals with MyOF system (differentiated lung myofibroblasts). Description: BioMAP Fibrosis panel, MyoF system, ELISA. It is filed as cell-based. An excerpt: (§1) The anti-fibrotic action effect of the composition of the present disclosure on pulmonary fibrosis and kidney fibrosis was verified by examining the expression level of various fibrosis markers using the BioMAP Fibrosis Panel (provided by Eurofins discovery).
(§2) BioMAP Fibrosis panel consists of three models, SAEMyoF system (co-culturing small airway epithelial cells and adult fibroblasts), REMyOF system (co-culture of renal proximal tubule epithelial cells and adult fibroblasts), and MyOF system (differentiated lung myofibroblasts). Here, the SAEMyoF system represents interstitial lung diseases (IDL), including pulmonary fibrotic diseases such as idiopathic pulmonary fibrosis (IPF), and the REMyOF system represents kidney fibrosis disease, which is associated with end-stage renal failure. However, experiments were conducted to confirm the effect of the MyoF system only on myofibroblasts.
(§3) (1) Each primary cell was used by pooling cells from multiple donors (n=3 to 6), and cells were first cultured in 96-well plates to confluence before adding a peripheral blood mononuclear cell (PBMC).
(2) Subsequently, the cells were then each treated with the composition of the present disclosure (rhHAPLN1 protein content of 0, 3.7, 11, and 33 ng/ml) at different concentrations and cultured for 1 hour. […]
Each quantitative value was compared as a relative fold change compared to the vehicle control. […]

The subject of assay [4] is REMyOF system (renal proximal tubule epithelial cells and adult fibroblasts). Description: BioMAP Fibrosis panel, REMyOF system (kidney fibrosis model), ELISA. The format is cell-based.
Description: as §1, §2, §3
(2) Subsequently, the cells were then each treated with the composition of the present disclosure (rhHAPLN1 protein content of 0, 3.7, 11, and 33 ng/ml) at different concentrations and cultured for 1 hour.
(3) The plates were then treated with TNF and TGFβ1 and incubated for 48 hours.
(4) Direct enzyme-linked immunosorbent assay (ELISA) was performed on the expression levels of various biomarkers.
Each quantitative value was compared as a relative fold change compared to the vehicle control. Statistical processing was performed using unpaired t-test, significant differences vs vehicle control, *p<0.05, **p<0.01, and ***p<0.001.
A general note: An ELISA detects its analyte on a solid surface through an enzyme-linked reagent.

Assay [5] has as its system human hepatic stellate cell (HHSC). Nature of the assay: TGFβ1-induced fibrosis of human hepatic stellate cells, αSMA western blot. It is filed as cell-based. Here is the method:
(1) Human hepatic stellate cells (primary human hepatic stellate cell (HHSC; iXCells Biotechnologies, 10HU-210) were seeded (1.5×10^5 cells/well) in a 6-well plate according to the experimental scheme in FIG. 2A and incubated in stellate cell growth medium (iXCells Biotechnologies, MD-0014) in an incubator at 37° C. 5% CO2 for 24 hours.
(2) After replacing with serum-free DMEM medium, the medium was incubated for 24 hours.
(3) The plates were then treated with TGF31 (2 ng/ml) to induce fibrosis and incubated for 24 hours.
(4) Afterwards, each well of the plate was then treated with the composition of the present disclosure at rhHAPLN1 protein content of 0, 3, 10, 30, and 100 ng/ml and pirfenidone 100 μg/mL and 200 μg/mL, respectively, and incubated for 24 hours.
(5) Each sample was then treated with cell lysis buffer and harvested.
(6) Western blotting was performed on the samples. Here, anti-αSMA Ab (Abcam, ab7817), anti-GAPDH Ab (Santa Cruz, sc-32233) were used as primary antibodies and HRP-conjugated anti-mouse IgG Ab (CST, #7076) as secondary antibodies to confirm the protein expression levels of αSMA and GAPDH.

Data on 2 molecules can be found in US20240350583A1, “COMPOSITION FOR PREVENTING OR TREATING FIBROTIC DISEASES, COMPRISING HAPLN1” (Chung Ang University Industry Academic Cooperation …, priority 2021, published 2024).

Entries after “also recorded” stand apart in the source; their conditions may differ.

`Cc1ccc(=O)n(-c2ccccc2)c1` [pirfenidone, reference compound]: in assay [1], the “effective doses in cells” value is at least 100 µg/mL.

B1: rhHAPLN1: recombinant human HAPLN1 protein of SEQ ID NO: 1 produced in CHO-K1 cells, stabilized in acetic acid buffer, sucrose, PS80, pH 5.0 (protein, listed as Homo sapiens)
chain: MKSLLLLVLISICWADHLSDNYTLDHDRAIHIQAENGPHLLVEAEQAKVFSHRGGNVTLPCKFYRDPTAFGSGIHKIRIKWTKLTSDYLKEVDVFVSMGYHKKTYGGYQGRVFLKGGSDSDASLVITDLTLEDYGRYKCEVIEGLEDDTVVVALDLQGVVFPYFPRLGRYNLNFHEAQQACLDQDAVIASFDQLYDAWRGGLDWCNAGWLSDGSVQYPITKPREPCGGQNTVPGVRNYGFWDKDKSRYDVFCFTSNFNGRFYYLIHPTKLTYDEAVQACLNDGAQIAKVGQIFAAWKILGYDRCDAGWLADGSVRYPISRPRRRCSPTEAAVRFVGFPDKKHKLYGVYCFRAYN
In the case of B1, the “anti-fibrotic efficacy (αSMA) compared to pirfenidone 0.2 mg/ml” value in assay [2] (rhHAPLN1 50 ng/ml) is listed as “almost equivalent to that of pirfenidone”. In assay [2] (rhHAPLN1 10 to 50 ng/ml, 48 hours after 24 hours TGFβ1), the “anti-fibrotic efficacy (αSMA) compared to composition that does not include rhHAPLN1 protein (FIG. 7B, FIG. 7C)” value is “superior anti-fibrotic action; also recorded: excellent anti-fibrotic efficacy”. Moreover, the “expression level of collagen I (MyoF system, FIG. 11C), fold change compared to vehicle control” value in assay [3] (in proportion to rhHAPLN1 content (3.7, 11, 33 ng/ml)) is at most 0.8 fold. Also, in assay [3] (rhHAPLN1 33 ng/ml), the “expression level of collagen IV, fold change compared to vehicle control (FIG. 11C)” value stood at 0.7 fold. For the same molecule, the “optimal concentration for anti-fibrotic efficacy in the kidney (assumed)” value in assay [4] (collagen I) came to 11 ng/mL. The “expression level of collagen I, fold change compared to vehicle control (FIG. 11B)” value in assay [4] (regardless of rhHAPLN1 content (3.7, 11, 33 ng/ml)) was at most 0.9 fold; in assay [4] (rhHAPLN1 11 ng/ml), about 0.7 fold. Further, the “expression level of αSMA compared to composition that does not include rhHAPLN1 protein (FIG. 2C)” value in assay [5] (TGFβ1 (2 ng/ml) 24 h, then rhHAPLN1 3, 10, 30, 100 ng/ml 24 h) is on record as “significantly lower”. Moreover, the “anti-fibrotic action from αSMA western blot band, compared to pirfenidone (FIG. 2B)” value in assay [5] (all rhHAPLN1 contents, pirfenidone 100 and 200 μg/mL) was “much better anti-fibrotic action compared to pirfenidone”. Further, the “anti-fibrotic efficacy compared to pirfenidone at 100 μg/mL and 200 μg/mL” value in assay [5] (rhHAPLN1 3 ng/ml, αSMA) was “much higher anti-fibrotic efficacy”. Besides, the “rhHAPLN1 protein content showing the most excellent anti-fibrotic efficacy” value in assay [5] (αSMA) stood at 3 ng/mL.
